Results taken from publication PMC5618690, “Structural and functional analysis of two small leucine-rich repeat proteoglycans, fibromodulin and chondroadherin” (Matrix Biology, 2017).
“Also recorded” adds a separate entry of the source.

What was measured:
[1] = SEC-MALS, oligomeric state in solution; format: physicochemical; details: for oligomeric state in solution / experimentally determined mass: SEC-MALS; for oligomeric state in solution: 10 mg/ml injected, pH 7.5, peak protein concentration estimated at least 50 μM; for experimentally determined mass: Superdex 75, 10 mg/ml injected, 150 mM NaCl, 20 mM HEPES (pH 7.5), 0.1 ml/min; for dissociation constant of dimer (if any): inferred from SEC-MALS, compared with decorin dimer 1.4 μM
Protocol: Fibromodulin and chondroadherin samples at a concentration of 10 mg/ml were injected onto a Superdex 75 10/30 column (GE Healthcare) connected to a 1260 Infinity HPLC (Agilent Technologies). The running buffer was 150 mM NaCl, 20 mM HEPES (pH 7.5) and the flow rate was 0.1 ml/min. Light scattering and refractive index changes were monitored using in-line Wyatt Mini Dawn and Optilab T-rEX detectors (Wyatt Technology Corp). The data were analysed with the Wyatt ASTRA V software. Each N-linked glycosylation site was assumed to add 2 kDa of molecular mass. The extinction coefficients for fibromodulin and chondroadherin were calculated as 32,930 and 40,715 M^− 1 cm^− 1, respectively.

[2] = tested on: Collagen Toolkits II and III; details: Toolkit peptides from collagens II and III; ref [9]; cited from earlier work
From the text: (§1) Chondroadherin knockout mice present with ...

[3] = tested on: Lysyl oxidase; details: very N-terminus of fibromodulin; ref [9]; cited from earlier work
From the text: Previous studies with bacterially expressed fibromodulin fragments identified LRRs 5-7 and 11 (VI-VIII and XII in the numbering scheme used here) as important for collagen binding, [25]. Thus, the collagen binding site appears to be located in the C-terminal half of fibromodulin, potentially leaving the N-terminal half containing most of the surface-exposed aromatic residues free to interact with another partner.

[4] = Affinity of untagged protein for Ni^2 + resin
Protocol: For purification of His-tagged fibromodulin, the filtered serum-free cell culture supernatant was adjusted to a final concentration of 20 mM Na-HEPES (pH 7.5) and loaded onto a 5-ml HisTrap Excel column (GE Healthcare) using an Äkta Purifier (GE Healthcare). The column was washed with buffer A (20 mM HEPES pH 7.5, 150 mM NaCl, 2 mM CaCl2) and the protein was eluted with 500 mM imidazole in buffer A. To remove the His-tag, fractions containing protein were incubated overnight with recombinant His-tagged TEV protease (made in E. coli using an expression vector kindly provided by Stephen Curry) while dialysing against buffer A. The reaction mixture was passed over a 5-ml HisTrap Excel column, and the flow-through containing the untagged fibromodulin protein was collected. After concentration using a Vivaspin centrifugal device (Sartorius), the fibromodulin protein was further purified by size exclusion chromatography on a Superdex 75 10/300 GL column (GE Healthcare) using buffer A as the running buffer. The purified protein ran as a single broad band of ~ 55 kDa on reducing SDS-PAGE (calculated: 41.5 kDa + 4 N-linked glycans).
The natural affinity of chondroadherin for Ni^2 + affinity resin was used to purify the untagged protein. […]

[5] = not SEC-MALS of this work; ref [26], [32], [33]; cited from earlier work
From the text: Fig. 3 Concave face interactions in SLRP crystal structures. For each structure, two orthogonal views are shown. […] The experimentally determined mass of fibromodulin was 56.7 kDa (calculated: 41.5 kDa + 4 N-linked glycans) and that of chondroadherin was 39.6 kDa (calculated: 38.6 kDa). In comparison, using the same SEC-MALS setup, we previously determined an experimental mass of 83.5 kDa for the glycosylated decorin core protein (calculated: 36.2 kDa + 4 N-linked glycans).

[6] = tested on: collagen III; test: Chondroadherin binding to collagen III; details: Collagen Toolkit III solid-phase assay
Protocol: (§2) Recombinant purified chondroadherin was biotinylated using biotin EZ-link reagent (ThermoFisher) and dialysed into TBS to remove excess biotinylation reagent. Collagen peptides from Toolkit II and III [57], [58] were coated on a 96-well plate at 10 μg/ml in 20 mM acetic acid overnight at 4 °C. […] The following incubations were conducted at room temperature. Plates were rinsed three times with TBS and blocked for 1 h with 5% BSA in TBS. After rinsing with TBS, plates were incubated with biotinylated chondroadherin at 10 μg/ml in TBST (TBS with 0.1% Tween-20) with 0.1% BSA for 1 h. Plates were washed three times with TBST, and incubated with streptavidin-HRP (Millipore) diluted 1:20,000 in TBST with 0.1% BSA for 1 h. Plates were washed five times with TBST, and the binding was detected with TMB substrate (ThermoFisher) and stopped with 2 M sulphuric acid. The absorbance was read at 450 nm.

[7] = C-terminal 14 residues; ref [15]; cited from earlier work
From the text: The collagen-binding site on chondroadherin has not been mapped. […] These positions map to the α-helix in the C-terminal cap of chondroadherin. Glu316, the last residue of the α-helix, appears to be critical for integrin binding and may interact with the metal ion-dependent adhesion site of the integrin α2 I domain [45], [46].

[8] = tested on: collagen I; details: ref [11]; cited from earlier work
From the text: as §1

[9] = tested on: collagen II; details: ref [13]; cited from earlier work
From the text: One of the more distant homologues of fibromodulin is chondroadherin, a class IV SLRP found in cartilage and bone. Chondroadherin-deficient mice have thinner cortical bones and longer growth plate proliferation zones, as well as mechanically softer knee surface cartilage.

[10] = tested on: collagen II; test: Chondroadherin binding to collagen II mapped with Toolkit II; details: mapped with Toolkit II solid-phase assay; six of the nine triplets in II-26
Protocol: as §2

[11] = tested on: integrin α2β1; details: cited from earlier work
From the text: One of the more distant homologues of fibromodulin is chondroadherin, a class IV SLRP found in cartilage and bone. Chondroadherin-deficient mice have thinner cortical bones and longer growth plate proliferation zones, as well as mechanically softer knee surface cartilage. […] These positions map to the α-helix in the C-terminal cap of chondroadherin. Glu316, the last residue of the α-helix, appears to be critical for integrin binding and may interact with the metal ion-dependent adhesion site of the integrin α2 I domain [45], [46].

binding to collagen III [6]	Molecule	oligomeric state in solution [1]	experimentally determined mass [1]	dissociation constant of dimer (if any) [1]	binding to Toolkit peptides [2]	binding to lysyl oxidase [3]	affinity for Ni^2 + resin [4]	oligomeric state in solution (literature) [5]	heparan sulphate binding [7]	binding to collagen I [8]	interaction with collagen II [9]	binding to collagen II [10]	integrin α2β1 binding ([11]; binding site in chondroadherin, ref [44])	interaction with integrin α2β1 (cell-matrix interactions) ([11]; ref [14])
	fibromodulin: human fibromodulin residues 19–376 of UniProt Q06828, ten N-terminal tyrosines mutated to serine, natively glycosylated (protein, N-linked glycans at Asn127, Asn166, Asn201, Asn291; left off: His-tag, N-terminal, cleaved, human fibromodulin residues 19–376 of UniProt Q06828, ten N-terminal tyrosines mutated to serine, natively glycosylated) GALAQYEDDPHWWFHYLRSQQSTSSDPSDPSPSETSEPSPSGVDEGPASTSGSPSPPDPRDCPQECDCPPNFPTAMYCDNRNLKYLPFVPSRMKYVYFQNNQITSIQEGVFDNATGLLWIALHGNQITSDKVGRKVFSKLRHLERLYLDHNNLTRMPGPLPRSLRELHLDHNQISRVPNNALEGLENLTALYLQHNEIQEVGSSMRGLRSLILLDLSYNHLRKVPDGLPSALEQLYMEHNNVYTVPDSYFRGAPKLLYVRLSHNSLTNNGLASNTFNSSSLLELDLSYNQLQKIPPVNTNLENLYLQGNRINEFSISSFCTVVDVVNFSKLQVLRLDGNEIKRSAMPADAPLCLRLASLIEI	predominantly monomeric in solution; also recorded: neither fibromodulin nor chondroadherin forms a stable dimer in solution	56.7 kDa	substantially higher than that of the decorin dimer	bound several Toolkit peptides from both collagens II and III; also recorded: binds to KGHR-containing sites in Collagen Toolkits II and III	Lysyl oxidase has been shown to bind to the very N-terminus of fibromodulin	substantial affinity for Ni^2 + resin							
	biglycan: class I SLRP core protein (protein, UniProt P21810 38-368, looked up) Biglycan: DEEASGADTSGVLDPDSVTPTYSAMCPFGCHCHLRVVQCSDLGLKSVPKEISPDTTLLDLQNNDISELRKDDFKGLQHLYALVLVNNKISKIHEKAFSPLRKLQKLYISKNHLVEIPPNLPSSLVELRIHDNRIRKVPKGVFSGLRNMNCIEMGGNPLENSGFEPGAFDGLKLNYLRISEAKLTGIPKDLPETLNELHLDHNKIQAIELEDLLRYSKLYRLGLGHNQIRMIENGSLSFLPTLRELHLDNNKLARVPSGLPDLKLLQVVYLHSNNITKVGVNDFCPMGFGVKRAYYNGISLFNNPVPYWEVQPATFRCVTDRLAIQFGNYKK							form stable dimers in solution						
not at all to collagen III	chondroadherin: human chondroadherin, residues 23–359 of Uniprot O15335, untagged; vector-derived APLA sequence at the N-terminus (protein) APLACPQNCHCHSDLQHVICDKVGLQKIPKVSEKTKLLNLQRNNFPVLAANSFRAMPNLVSLHLQHCQIREVAAGAFRGLKQLIYLYLSHNDIRVLRAGAFDDLTELTYLYLDHNKVTELPRGLLSPLVNLFILQLNNNKIRELRAGAFQGAKDLRWLYLSENALSSLQPGALDDVENLAKFHVDRNQLSSYPSAALSKLRVVEELKLSHNPLKSIPDNAFQSFGRYLETLWLDNTNLEKFSDGAFLGVTTLKHVHLENNRLNQLPSNFPFDSLETLALTNNPWKCTCQLRGLRRWLEAKASRPDATCASPAKFKGQHIRDTDAFRSCKFPTKRSKKAGRH	predominantly monomeric in solution; also recorded: neither fibromodulin nor chondroadherin forms a stable dimer in solution; also recorded: at best, very weak	39.6 kDa	substantially higher than that of the decorin dimer			substantial affinity for Ni^2 + resin		bind heparan sulphate	reported binding of chondroadherin to collagen I	interacts with collagen II	binds to a unique sequence motif in collagen II	residues 307–318 have been identified as a binding site for integrin α2β1	mediates cell-matrix interactions through binding to integrin α2β1
